From patent US20240336661A1, “PEPTIDES DERIVED FROM RUMINOCOCCUS TORQUES” (University of Copenhagen, priority 2021, published 2024)

Legend:
[1] = tested on: human visceral white pre-adipocytes; assay: Thermogenesis/browning gene expression in human visceral white pre-adipocytes (q-PCR); assay type: cell-based; conditions: human white preadipocytes, treatment from third day of differentiation, harvested after 14 days
Procedure: (§1) FIG. 9. Exposure of recombinant RUCILP2 to human visceral white pre-adipocytes or murine inguinal white adipocytes causes up-regulation of the expression of genes involved in thermogenesis/browning. Upper panel: mRNA expression level of adipocyte differentiation marker genes including Ucp1, Pparγ1, Dio2, and Cox2 and brown adipocyte-selective genes including Cpt1b and Ebf2 on human white preadipocytes (HWP). Human white preadipocytes were cultured until 80% confluent and switched into differentiation media (with 0.3 ml/ml fetal calf serum, 8 ug/ml d-biotin, 0.5 ug/ml insulin, 400 ng/ml dexamethasone). The differentiation process to mature adipocytes was completed after 12-14 days. The treatment of RUCILP2 started from the third day of differentiation. Cells were harvested after 14 days of differentiation and the gene expressions were quantified by q-PCR. […] Statistical significance was determined by unpaired two-tailed Student's t test. *, p<0.05 vs 0 nM RUCILP2.
(§2) FIG. 28. […] Cells were harvested after 14 days of differentiation and the indicated genes were quantified by q-PCR. […] Cells were harvested after 6 days of differentiation and thermogenesis gene were quantified by q-PCR. […] Cells were harvested after 4 days of differentiation and expression of myogenesis genes were quantified by q-PCR. […] Statistical significance was determined by unpaired two-tailed Student's t test, *, p<0.05 […]

[2] = molecular target: αV/β5 integrin receptor complex (Homo sapiens, UniProt P06756+P18084); assay: Co-immunoprecipitation on a nickel ion column; assay type: binding; conditions: 100 nM Fc-fused RUCILP2, 5 nM His-tag αV/β5 integrin
Procedure: FIG. 6. Co-immunoprecipitation on a nickel ion column to validate binding of recombinant RUCILP2 to the αV/β5 integrin receptor complex. 100 nM Fc-fused RUCILP2 was incubated with 5 nM of His-tag αV/β5 integrin receptor, followed by immunoprecipitation using nickel-nitrilotriacetic acid (Ni-NTA) agarose. Precipitated integrins and co-precipitated irisin were analyzed by immuno-blot analysis. Elution indicates a mixture of disassociated integrin and RUCILP2 from the integrin-RUCILP2 complex. Before loading, samples were a mixture of co-incubation of RUCILP2 and integrin receptor.
• Step 1: Binding of integrin and RUCILP2. One hundred nM FC-tagged RUCILP2 was incubated with 5 nM of the indicated his-tag integrin avb5 in a final volume of 500ul in 1.5 ml Protein LoBind Tubes (Eppendorf, 022431081) for 5/30/90 minutes at room temperature under rotation. • Step 2: After rotation, Ni spin column (ThermoFisher Scientific, R901-01) was applied to immunoprecipitate integrins. In details, Add 500 μl of FC-RUCILP2-integrin-His protein complex to the column. Mix end-over-end at 4° C. for 15 minutes. […] Precipitated integrin was detected by immuno-blot analysis against his tag. Co-precipitated RUCILP2 was detected by immunoblot analysis against FC-tag. […]

[3] = tested on: murine inguinal white adipocytes; assay: Thermogenesis gene expression in murine inguinal adipocytes (q-PCR); assay type: cell-based, mouse; conditions: murine inguinal white adipocytes from stromal vascular fraction, treated 4 days
Procedure: as §1, §2

Sequence of αV/β5 integrin receptor complex (P06756 31-992 limits assumed): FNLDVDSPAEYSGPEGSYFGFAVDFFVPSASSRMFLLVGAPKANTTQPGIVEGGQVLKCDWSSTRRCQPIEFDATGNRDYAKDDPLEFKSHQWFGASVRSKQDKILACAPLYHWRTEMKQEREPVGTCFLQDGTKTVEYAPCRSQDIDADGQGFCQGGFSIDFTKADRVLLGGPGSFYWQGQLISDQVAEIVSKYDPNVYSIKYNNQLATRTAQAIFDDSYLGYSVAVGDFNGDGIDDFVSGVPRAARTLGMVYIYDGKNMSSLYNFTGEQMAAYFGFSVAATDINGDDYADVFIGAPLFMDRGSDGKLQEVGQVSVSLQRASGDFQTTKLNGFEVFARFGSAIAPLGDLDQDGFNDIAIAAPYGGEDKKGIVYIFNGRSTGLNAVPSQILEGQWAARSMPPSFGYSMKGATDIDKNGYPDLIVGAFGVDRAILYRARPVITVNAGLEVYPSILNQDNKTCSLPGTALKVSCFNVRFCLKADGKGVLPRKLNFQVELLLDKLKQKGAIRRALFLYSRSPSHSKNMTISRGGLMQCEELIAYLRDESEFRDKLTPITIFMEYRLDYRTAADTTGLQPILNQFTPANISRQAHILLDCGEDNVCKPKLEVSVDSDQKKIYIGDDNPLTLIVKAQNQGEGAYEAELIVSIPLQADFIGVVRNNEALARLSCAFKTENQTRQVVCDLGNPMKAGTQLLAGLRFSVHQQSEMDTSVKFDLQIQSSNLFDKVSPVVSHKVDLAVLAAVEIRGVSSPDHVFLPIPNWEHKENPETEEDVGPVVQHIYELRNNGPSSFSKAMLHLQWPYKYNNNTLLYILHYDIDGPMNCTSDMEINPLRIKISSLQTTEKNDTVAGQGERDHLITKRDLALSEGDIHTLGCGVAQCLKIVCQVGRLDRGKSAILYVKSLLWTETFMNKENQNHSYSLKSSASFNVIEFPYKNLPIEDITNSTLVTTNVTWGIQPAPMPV
Sequence of αV/β5 integrin receptor complex (P18084 24-719 limits assumed): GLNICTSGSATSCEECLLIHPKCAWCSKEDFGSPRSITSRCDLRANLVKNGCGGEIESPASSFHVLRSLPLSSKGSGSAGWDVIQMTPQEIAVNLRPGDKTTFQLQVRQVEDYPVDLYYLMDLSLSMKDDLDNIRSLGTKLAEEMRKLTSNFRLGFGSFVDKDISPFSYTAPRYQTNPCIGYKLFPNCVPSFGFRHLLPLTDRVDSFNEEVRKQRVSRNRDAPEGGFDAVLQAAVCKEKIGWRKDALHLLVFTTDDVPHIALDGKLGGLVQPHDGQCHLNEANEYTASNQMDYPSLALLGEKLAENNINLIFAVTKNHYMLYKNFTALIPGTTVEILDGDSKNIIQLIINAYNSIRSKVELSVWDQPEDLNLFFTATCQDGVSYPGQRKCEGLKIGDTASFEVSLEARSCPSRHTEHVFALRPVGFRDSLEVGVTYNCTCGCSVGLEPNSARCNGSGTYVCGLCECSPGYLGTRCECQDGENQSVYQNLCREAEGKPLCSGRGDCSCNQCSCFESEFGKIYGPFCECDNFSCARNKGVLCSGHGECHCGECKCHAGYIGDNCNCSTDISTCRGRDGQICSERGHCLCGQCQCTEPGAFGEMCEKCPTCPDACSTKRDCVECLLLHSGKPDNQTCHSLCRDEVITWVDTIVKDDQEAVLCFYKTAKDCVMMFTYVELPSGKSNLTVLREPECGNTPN

B1: RUCILP2: 87 amino acid irisin-like polypeptide cleaved from the Ruminococcus torques FNDC5-like protein RUMTOR_00181; recombinant, 6-His-tagged from E. coli (protein)
chain: APVDVKVSEITETSAKASWKNAADGKEAAGYNVYVDGVKLNKELLTEASCGLTNLKAETTYFVEVTAVDAAGNESVKSEKVTFKTLK
modifications: 6-His tag; Ruminococcus torques
notes: 87 amino acid irisin-like polypeptide cleaved from the Ruminococcus torques FNDC5-like protein RUMTOR_00181; recombinant, 6-His-tagged from E. coli
For B1, the “expression of genes involved in thermogenesis/browning (Ucp1, Pparγ1, Dio2, Cox2, Cpt1b, Ebf2)” value [1] was “up-regulation”, the “binding to αV/β5 integrin receptor (co-immunoprecipitation)” value [2] was “direct interaction” and the “expression of genes involved in thermogenesis/browning” value [3] was “up-regulation”.
